Reference: IntAct's records for PubMed 29039417

B1: BBSome complex member BBS4 (Homo sapiens), Q96RK4 (parent)
chain: MAEERVATRTQFPVSTESQKPRQKKAPEFPILEKQNWLIHLHYIRKDYEACKAVIKEQLQETQGLCEYAIYVQALIFRLEGNIQESLELFQTCAVLSPQSADNLKQVARSLFLLGKHKAAIEVYNEAAKLNQKDWEISHNLGVCYIYLKQFNKAQDQLHNALNLNRHDLTYIMLGKIHLLEGDLDKAIEVYKKAVEFSPENTELLTTLGLLYLQLGIYQKAFEHLGNALTYDPTNYKAILAAGSMMQTHGDFDVALTKYRVVACAVPESPPLWNNIGMCFFGKKKYVAAISCLKRANYLAPFDWKILYNLGLVHLTMQQYASAFHFLSAAINFQPKMGELYMLLAVALTNLEDIENAKRAYAEAVHLDKCNPLVNLNYAVLLYNQGEKKNALAQYQEMEKKVSLLKDNSSLEFDSEMVEMAQKLGAALQVGEALVWTKPVKDPKSKHQTTSTSKPASFQQPLGSNQALGQAMSSAAAYRTLPSGAGGTSQFTKPPSLPLEPEPAVESSPTETSEQIREK
partner: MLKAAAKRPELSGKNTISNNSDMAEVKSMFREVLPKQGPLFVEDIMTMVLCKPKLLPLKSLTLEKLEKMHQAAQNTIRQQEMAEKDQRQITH

Variants of: B1
Details: with bbip1_human BBIP1, A8MTZ0

Variant	effect of a mutation on the interaction
MAEERVATRTQFPVSTESQKPRQKKAPEFPILEKQNWLIHLHYIRKDYEACKAVIKEQLQETQGLCEYAIYVQALIFRLEGNIQESLELFQTCAVLSPQSADNLKQVARSLFLLGKHKAAIEVYNEAAKLNQKDWEISHNLGVCYIYLKQFNKAQDQLHNALNLNRHDLTYIMLGKIHLLEGDLDKAIEVYKKAVEFSPENTELLTTLGLLYLQLGIYQKAFEHLGNALTYDPTNYKAILAAGSMMQTHGDFDVALTKYRVVACAVPESPPLWNNIGMCFFGKKKYVAAISCLKRANYLAPFDWKILYNLGLVHLTMQQYASAFHFLSAAINFQPKMGELYMLLAAALTNLEDIENAKRAYAEAVHLDKCNPLVNLNYAVLLYNQGEKKNALAQYQEMEKKVSLLKDNSSLEFDSEMVEMAQKLGAALQVGEALVWTKPVKDPKSKHQTTSTSKPASFQQPLGSNQALGQAMSSAAAYRTLPSGAGGTSQFTKPPSLPLEPEPAVESSPTETSEQIREK [V346A]	disrupting interaction strength
MAEERVATRTQFPVSTESQKPRQKKAPEFPILEKQNWLIHLHYIRKDYEACKAVIKEQLQETQGLCEYAIYVQALIFRLEGNIQESLELFQTCAVLSPQSADNLKQVARSLFLLGKHKAAIEVYNEAAKLNQKDWEISHNLGVCYIYLKQFNKAQDQLHNALNLNRHDLTYIMLGKIHLLEGDLDKAIEVYKKAVEFSPENTELLTTLGLLYLQLGIYQKAFEHLGNALTYDPTNYKAILAAGSMMQTHGDFDVALTKYRVVACAVPESPPLWNNIGMCFFGKKKYVAAISCLKRANYLAPFDWKILYNLGLVHLTMQQYASAFHFLSAAINFQPKMGELYMPLAVALTNLEDIENAKRAYAEAVHLDKCNPLVNLNYAVLLYNQGEKKNALAQYQEMEKKVSLLKDNSSLEFDSEMVEMAQKLGAALQVGEALVWTKPVKDPKSKHQTTSTSKPASFQQPLGSNQALGQAMSSAAAYRTLPSGAGGTSQFTKPPSLPLEPEPAVESSPTETSEQIREK [L343P]	disrupting interaction strength
MAEERVATRTQFPVSTESQKPRQKKAPEFPILEKQNWLIHLHYIRKDYEACKAVIKEQLQETQGLCEYAIYVQALIFRLEGNIQESLELFQTCAVLSPQSADNLKQVARSLFLLGKHKAAIEVYNEAAKLNQKDWEISHNLGVCYIYLKQFNKAQDQLHNALNLNRHDLTYIMLGKIHLLEGDLDKAIEVYKKAVEFSPENTELLTTLGLLYLQLGIYQKAFEHLGNALTYDPTNYKAILAAGSMMQTHGDFDVALTKYRVVACAVPESPPLWNNIGMCFFGKKKYVAAISCLKRANYLAPFDWKILYNLGLVHLTMQQYASAFHFLSAAINFQPKMGELYMLLAVALTNLEDIENAKRAYAGAVHLDKCNPLVNLNYAVLLYNQGEKKNALAQYQEMEKKVSLLKDNSSLEFDSEMVEMAQKLGAALQVGEALVWTKPVKDPKSKHQTTSTSKPASFQQPLGSNQALGQAMSSAAAYRTLPSGAGGTSQFTKPPSLPLEPEPAVESSPTETSEQIREK [E363G]	disrupting interaction strength
MAEERVATRTQFPVSTESQKPRQKKAPEFPILEKQNWLIHLHYIRKDYEACKAVIKEQLQETQGLCEYAIYVQALIFRLEGNIQESLELFQTCAVLSPQSADNLKQVARSLFLLGKHKAAIEVYNEAAKLNQKDWEISHNLGVCYIYLKQFNKAQDQLHNALNLNRHDLTYIMLGKIHLLEGDLDKAIEVYKKAVEFSPENTELLTTLGLLYLQLGIYQKAFEHLGNALTYDPTNYKAILAAGSMMQTHGDFDVALTKYRVVACAVPESPPLWNNIGMCFFGKKKYVAAISCLKRANYLAPFDWKILYNLGLVHLTMQQYASAFHFLSAAINFQPKMGELYMLLAVALTNLEDIENAKRAYAEAVHLDKCNPLVNLNYAVLLYNQGEKKNALAQYQEMEKKVSLLKDNSSLEFDSEMVEMAQKLGAALQVGEALVWTKPVKDPKSKHQTTSTSKPASFQQPLGSNQALGQAMSSAAAYRTLPEGAGGTSQFTKPPSLPLEPEPAVESSPTETSEQIREK [S483E]	with no effect
MAEERVATRTQFPVSTESQKPRQKKAPEFPILEKQNWLIHLHYIRKDYEACKAVIKEQLQETQGLCEYAIYVQALIFRLEGNIQESLELFQTCAVLSPQSADNLKQVARSLFLLGKHKAAIEVYNEAAKLNQKDWEISHNLGVCYIYLKQFNKAQDQLHNALNLNRHDLTYIMLGKIHLLEGDLDKAIEVYKKAVEFSPENTELLTTLGLLYLQLGIYQKAFEHLGNALTYDPTNYKAILAAGSMMQTHGDFDVALTKYRVVACAVPESPPLWNNIGMCFFGKKKYVAAISCLKRANYLAPFDWKILYNLGLVHLTMQQYASAFHFLSAAINFQPKMGELYMLLAVALTNLEDIENAKRAYAEAVHLDKCNPLVNLNYAVLLYNQGEKKNALAQYQEMEKKVSLLKDNSSLEFDSEMVEMAQKLGAALQVGEALVWTAPVKDPKSKHQTTSTSKPASFQQPLGSNQALGQAMSSAAAYRTLPSGAGGTSQFTKPPSLPLEPEPAVESSPTETSEQIREK [K438A]	with no effect
MAEERVATRTQFPVSTESQKPRQKKAPEFPILEKQNWLIHLHYIRKDYEACKAVIKEQLQETQGLCEYAIYVQALIFRLEGNIQESLELFQTCAVLSPQSADNLKQVARSLFLLGKHKAAIEVYNEAAKLNQKDWEISHNLGVCYIYLKQFNKAQDQLHNALNLNRHDLTYIMLGKIHLLEGDLDKAIEVYKKAVEFSPENTELLTTLGLLYLQLGIYQKAFEHLGNALTYDPTNYKAILAAGSMMQTHGDFDVALTKYRVVACAVPESPPLWNNIGMCFFGKKKYVAAISCLKRANYLAPFDWKILYNLGLVHLTMQQYASAFHFLSAAINFQPKMGELYMLLAVALTNLEDIENAKRAYAEAVHLDKCNPLVNLNYAVLLYNQGEKKNAEAQYQEMEKKVSLLKDNSSLEFDSEMVEMAQKLGAALQVGEALVWTKPVKDPKSKHQTTSTSKPASFQQPLGSNQALGQAMSSAAAYRTLPSGAGGTSQFTKPPSLPLEPEPAVESSPTETSEQIREK [L392E]	with no effect
MAEERVATRTQFPVSTESQKPRQKKAPEFPILEKQNWLIHLHYIRKDYEACKAVIKEQLQETQGLCEYAIYVQALIFRLEGNIQESLELFQTCAVLSPQSADNLKQVARSLFLLGKHKAAIEVYNEAAKLNQKDWEISHNLGVCYIYLKQFNKAQDQLHNALNLNRHDLTYIMLGKIHLLEGDLDKAIEVYKKAVEFSPENTELLTTLGLLYLQLGIYQKAFEHLGNALTYDPTNYKAILAAGSMMQTHGDFDVALTKYRVVACAVPESPPLWNNIGMCFFGKKKYVAAISCLKRANYLAPFDWKILYNLGLVHLTMQQYASAFHFLSAAINFQPKMGELYMLLAVALTNLEDIENAKRAYAEAVHLDKCNPLVNLNYAVLLYNQGEKKNALAQYQEMEKKVSLLKDNSSLEFDSEMVEMAQKLGAALQVGEALVWTKPVEDPKSKHQTTSTSKPASFQQPLGSNQALGQAMSSAAAYRTLPSGAGGTSQFTKPPSLPLEPEPAVESSPTETSEQIREK [K441E]	with no effect
MAEERVATRTQFPVSTESQKPRQKKAPEFPILEKQNWLIHLHYIRKDYEACKAVIKEQLQETQGLCEYAIYVQALIFRLEGNIQESLELFQTCAVLSPQSADNLKQVARSLFLLGKHKAAIEVYNEAAKLNQKDWEISHNLGVCYIYLKQFNKAQDQLHNALNLNRHDLTYIMLGKIHLLEGDLDKAIEVYKKAVEFSPENTELLTTLGLLYLQLGIYQKAFEHLGNALTYDPTNYKAILAAGSMMQTHGDFDVALTKYRVVACAVPESPPLWNNIGMCFFGKKKYVAAISCLKRANYLAPFDWKILYNLGLVHLTMQQYASAFHFLSAAINFQPKMGELYMLLAVALTNLEDIENAKRAYAEAVHLDKCNPLVNLNYAVLLYNQGEKKNALAQYQEMEKKVSLLKDNSSLEFDSEMVEMAQKLKAALQVGEALVWTKPVKDPKSKHQTTSTSKPASFQQPLGSNQALGQAMSSAAAYRTLPSGAGGTSQFTKPPSLPLEPEPAVESSPTETSEQIREK [G425K]	with no effect
MAEERVATRTQFPVSTESQKPRQKKAPEFPILEKQNWLIHLHYIRKDYEACKAVIKEQLQETQGLCEYAIYVQALIFRLEGNIQESLELFQTCAVLSPQSADNLKQVARSLFLLGKHKAAIEVYNEAAKLNQKDWEISHNLGVCYIYLKQFNKAQDQLHNALNLNRHDLTYIMLGKIHLLEGDLDKAIEVYKKAVEFSPENTELLTTLGLLYLQLGIYQKAFEHLGNALTYDPTNYKAILAAGSMMQTHGDFDVALTKYRVVACAVPESPPLWNNIGMCFFGKKKYVAAISCLKRANYLAPFDWKILYNLGLVHLTMQQYASAFHFLSAAINFQPKMGELYMLLAVALTNLEDIENAKRAYAEAVHLDKCNPLVNLNYAVLLYNKGEKKNALAQYQEMEKKVSLLKDNSSLEFDSEMVEMAQKLGAALQVGEALVWTKPVKDPKSKHQTTSTSKPASFQQPLGSNQALGQAMSSAAAYRTLPSGAGGTSQFTKPPSLPLEPEPAVESSPTETSEQIREK [Q385K]	with no effect
MAEERVATRTQFPVSTESQKPRQKKAPEFPILEKQNWLIHLHYIRKDYEACKAVIKEQLQETQGLCEYAIYVQALIFRLEGNIQESLELFQTCAVLSPQSADNLKQVARSLFLLGKHKAAIEVYNEAAKLNQKDWEISHNLGVCYIYLKQFNKAQDQLHNALNLNRHDLTYIMLGKIHLLEGDLDKAIEVYKKAVEFSPENTELLTTLGLLYLQLGIYQKAFEHLGNALTYDPTNYKAILAAGSMMQTHGDFDVALTKYRVVACAVPESPPLWNNIGMCFFGKKKYVAAISCLKRANYLAPFDWKILYNLGLVHLTMQQYASAFHFLSAAINFQPKMGELYMLLAVALTNLEDIENAKRAYAEAVHLDKCNPLVNLNYAVLLYNQGEKKNALAQYQEMEKKVSLLKDNSSLEFDSEMVEMAQKLGAALQVGEALVWTKPVKDPKSKHQTTSTSKPASFQQPLGSNQALGQAMSSAAAYRTLPSGAGGTSQFTKPPSEPLEPEPAVESSPTETSEQIREK [L497E]	with no effect
MAEERVATRTQFPVSTESQKPRQKKAPEFPILEKQNWLIHLHYIRKDYEACKAVIKEQLQETQGLCEYAIYVQALIFRLEGNIQESLELFQTCAVLSPQSADNLKQVARSLFLLGKHKAAIEVYNEAAKLNQKDWEISHNLGVCYIYLKQFNKAQDQLHNALNLNRHDLTYIMLGKIHLLEGDLDKAIEVYKKAVEFSPENTELLTTLGLLYLQLGIYQKAFEHLGNALTYDPTNYKAILAAGSMMQTHGDFDVALTKYRVVACAVPESPPLWNNIGMCFFGKKKYVAAISCLKRANYLAPFDWKILYNLGLVHLTMQQYASAFHFLSAAINFQPKMGELYMLLAVALTNLEDIENAKRAYAEAVHLDKCNPLVNLNYAVLLENQGEKKNALAQYQEMEKKVSLLKDNSSLEFDSEMVEMAQKLGAALQVGEALVWTKPVKDPKSKHQTTSTSKPASFQQPLGSNQALGQAMSSAAAYRTLPSGAGGTSQFTKPPSLPLEPEPAVESSPTETSEQIREK [Y383E]	with no effect
